{"source": "IntAct's records for PubMed 30623132", "parents": {"B1": {"name": "Myosin-7 (Homo sapiens), P12883 (parent)", "chain": "MGDSEMAVFGAAAPYLRKSEKERLEAQTRPFDLKKDVFVPDDKQEFVKAKIVSREGGKVTAETEYGKTVTVKEDQVMQQNPPKFDKIEDMAMLTFLHEPAVLYNLKDRYGSWMIYTYSGLFCVTVNPYKWLPVYTPEVVAAYRGKKRSEAPPHIFSISDNAYQYMLTDRENQSILITGESGAGKTVNTKRVIQYFAVIAAIGDRSKKDQSPGKGTLEDQIIQANPALEAFGNAKTVRNDNSSRFGKFIRIHFGATGKLASADIETYLLEKSRVIFQLKAERDYHIFYQILSNKKPELLDMLLITNNPYDYAFISQGETTVASIDDAEELMATDNAFDVLGFTSEEKNSMYKLTGAIMHFGNMKFKLKQREEQAEPDGTEEADKSAYLMGLNSADLLKGLCHPRVKVGNEYVTKGQNVQQVIYATGALAKAVYERMFNWMVTRINATLETKQPRQYFIGVLDIAGFEIFDFNSFEQLCINFTNEKLQQFFNHHMFVLEQEEYKKEGIEWTFIDFGMDLQACIDLIEKPMGIMSILEEECMFPKATDMTFKAKLFDNHLGKSANFQKPRNIKGKPEAHFSLIHYAGIVDYNIIGWLQKNKDPLNETVVGLYQKSSLKLLSTLFANYAGADAPIEKGKGKAKKGSSFQTVSALHRENLNKLMTNLRSTHPHFVRCIIPNETKSPGVMDNPLVMHQLRCNGVLEGIRICRKGFPNRILYGDFRQRYRILNPAAIPEGQFIDSRKGAEKLLSSLDIDHNQYKFGHTKVFFKAGLLGLLEEMRDERLSRIITRIQAQSRGVLARMEYKKLLERRDSLLVIQWNIRAFMGVKNWPWMKLYFKIKPLLKSAEREKEMASMKEEFTRLKEALEKSEARRKELEEKMVSLLQEKNDLQLQVQAEQDNLADAEERCDQLIKNKIQLEAKVKEMNERLEDEEEMNAELTAKKRKLEDECSELKRDIDDLELTLAKVEKEKHATENKVKNLTEEMAGLDEIIAKLTKEKKALQEAHQQALDDLQAEEDKVNTLTKAKVKLEQQVDDLEGSLEQEKKVRMDLERAKRKLEGDLKLTQESIMDLENDKQQLDERLKKKDFELNALNARIEDEQALGSQLQKKLKELQARIEELEEELEAERTARAKVEKLRSDLSRELEEISERLEEAGGATSVQIEMNKKREAEFQKMRRDLEEATLQHEATAAALRKKHADSVAELGEQIDNLQRVKQKLEKEKSEFKLELDDVTSNMEQIIKAKANLEKMCRTLEDQMNEHRSKAEETQRSVNDLTSQRAKLQTENGELSRQLDEKEALISQLTRGKLTYTQQLEDLKRQLEEEVKAKNALAHALQSARHDCDLLREQYEEETEAKAELQRVLSKANSEVAQWRTKYETDAIQRTEELEEAKKKLAQRLQEAEEAVEAVNAKCSSLEKTKHRLQNEIEDLMVDVERSNAAAAALDKKQRNFDKILAEWKQKYEESQSELESSQKEARSLSTELFKLKNAYEESLEHLETFKRENKNLQEEISDLTEQLGSSGKTIHELEKVRKQLEAEKMELQSALEEAEASLEHEEGKILRAQLEFNQIKAEIERKLAEKDEEMEQAKRNHLRVVDSLQTSLDAETRSRNEALRVKKKMEGDLNEMEIQLSHANRMAAEAQKQVKSLQSLLKDTQIQLDDAVRANDDLKENIAIVERRNNLLQAELEELRAVVEQTERSRKLAEQELIETSERVQLLHSQNTSLINQKKKMDADLSQLQTEVEEAVQECRNAEEKAKKAITDAAMMAEELKKEQDTSAHLERMKKNMEQTIKDLQHRLDEAEQIALKGGKKQLQKLEARVRELENELEAEQKRNAESVKGMRKSERRIKELTYQTEEDRKNLLRLQDLVDKLQLKVKAYKRQAEEAEEQANTNLSKFRKVQHELDEAEERADIAESQVNKLRAKSRDIGTKGLNEE"}}}
{"variants_of": "B1", "conditions": "with mypc3_human MYBPC3, Q14896"}
{"variant": "E848G", "effect of a mutation on the interaction": "disrupting interaction strength"}
